Article PMC10183829 (2023)
No end group written: not given here. TAMRA = 5(6)-carboxytetramethylrhodamine

B2: ATG8A (purified) (natural protein)
chain: MAKSSFKISNPLEARMSESSRIREKYPDRIPVIVEKAGQSDVPDIDKKKYLVPADLTVGQFVYVVRKRIKLGAEKAIFVFVKNTLPPTAALMSAIYEEHKDEDGFLYMTYSGENTFG

Assays:
[1] = target: B2; test: FP
[2] = target: HsUFM1 (purified) (human, UniProt P61960 1-85); test: ITC
[3] = target: GABARAP (purified) (human, UniProt O95166 3-116); test: ITC
[4] = target: cAIM mut; test: FP
[5] = target: sAIM3; test: FP

Sequence of HsUFM1 (purified) (P61960 whole entry): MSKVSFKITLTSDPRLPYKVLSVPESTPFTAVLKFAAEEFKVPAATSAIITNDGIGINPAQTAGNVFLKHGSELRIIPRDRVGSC
Sequence of GABARAP (purified) (O95166 3-116): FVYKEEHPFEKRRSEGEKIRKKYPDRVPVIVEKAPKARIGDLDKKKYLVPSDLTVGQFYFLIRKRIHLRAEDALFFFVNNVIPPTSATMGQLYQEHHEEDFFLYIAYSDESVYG

Binder: {TAMRA}-ETPEIDWDVSMVEEV [peptide derived from sAIM2 (AtC53 IDR)]
- Kd [1]: 56.8 µM

Binder: {TAMRA}-DLGSYEIVNASDI [peptide derived from the cAIM of the AtC53 IDR]
- Kd [1]: 62.5 µM

Binder: GPLHDDNEWNISVVDD [UBA5 LIR]
- Kd [2]: 7.51 µM

B1: HsC53 wt (purified) (natural protein)
chain: MEDHQHVPIDIQTSKLLDWLVDRRHCSLKWQSLVLTIREKINAAIQDMPESEEIAQLLSGSYIHYFHCLRILDLLKGTEASTKNIFGRYSSQRMKDWQEIIALYEKDNTYLVELSSLLVRNVNYEIPSLKKQIAKCQQLQQEYSRKEEECQAGAAEMREQFYHSCKQYGITGENVRGELLALVKDLPSQLAEIGAAAQQSLGEAIDVYQASVGFVCESPTEQVLPMLRFVQKRGNSTVYEWRTGTEPSVVERPHLEELPEQVAEDAIDWGDFGVEAVSEGTDSGISAEAAGIDWGIFPESDSKDPGGDGIDWGDDAVALQITVLEAGTQAPEGVARGPDALTLLEYTETRNQFLDELMELEIFLAQRAVELSEEADVLSVSQFQLAPAILQGQTKEKMVTMVSVLEDLIGKLTSLQLQHLFMILASPRYVDRVTEFLQQKLKQSQLLALKKELMVQKQQEALEEQAALEPKLDLLLEKTKELQKLIEADISKRYSGRPVNLMGTSL
- Kd [3]: 20.9 µM

Binder: {TAMRA}-AADSIDWDITVET [peptide derived from sAIM1 (AtC53 IDR)]
- Kd [1]: 97.6 µM

Binder: B2
- Kd [4]: 94.3 µM
- Kd [5]: 176 µM
